In patent US9969998B2, “Compositions of adenosine deaminase-2 (ADA2), variants thereof and methods of using same” (Halozyme, Inc., priority 2014, dated 2018):

Assay: Heparin binding ELISA (immobilized heparin)
Details: Example 8
Description: Heparin binding of a protein, such as any ADA2 provided herein, can also be assessed using enzyme-linked immunosorbant assay (ELISA) based methods. ELISA-based methods use heparin immobilized on a surface, such as a microtiter plate. The protein of interest which binds to heparin, such as any ADA2 provided herein, is incubated in the heparin coated plate, and binding is detected using antibodies that detect the protein of interest, such as any ADA2 provided herein.
For example, a 96-well plate coated with 100 μL of 200 μg/mL heparin sodium salt (Calibochem, EMD Milipore, Billerica, Mass.; Cat. No. 375095) in Na2CO3 buffer (pH 9.6) can be used to test ADA2 binding to heparin. […] The optical density (OD) of each reaction is measured on a plate reader.
In another example, heparin is immobilized by incubating Streptavidin-coated microtiter plates, such as the Streptavidin-coated 96-well plate (Thermo Fisher Scientific, Rockford, Ill.; Cat. No. 15520), with biotinylated heparin, such as biotin-heparin (Sigma-Aldrich, St. Louis, Mo.; Cat No. B9806-10MG). […] The optical density (OD) of each reaction is measured on a plate reader. […]

B1: PEGylated ADA2: ADA2 conjugate that is a PEGylated ADA2 (conjugate, UniProt Q9NZK5 30-511, looked up)
Adenosine deaminase 2: IDETRAHLLLKEKMMRLGGRLVLNTKEELANERLMTLKIAEMKEAMRTLIFPPSMHFFQAKHLIERSQVFNILRMMPKGAALHLHDIGIVTMDWLVRNVTYRPHCHICFTPRGIMQFRFAHPTPRPSEKCSKWILLEDYRKRVQNVTEFDDSLLRNFTLVTQHPEVIYTNQNVVWSKFETIFFTISGLIHYAPVFRDYVFRSMQEFYEDNVLYMEIRARLLPVYELSGEHHDEEWSVKTYQEVAQKFVETHPEFIGIKIIYSDHRSKDVAVIAESIRMAMGLRIKFPTVVAGFDLVGHEDTGHSLHDYKEALMIPAKDGVKLPYFFHAGETDWQGTSIDRNILDALMLNTTRIGHGFALSKHPAVRTYSWKKDIPIEVCPISNQVLKLVSDLRNHPVATLMATGHPMVISSDDPAMFGAKGLSYDFYEVFMGIGGMKADLRTLKQLAMNSIKYSTLLESEKNTFMEIWKKRWDKFIADVATK
modifications: PEG
heparin binding compared to the corresponding non-PEGylated ADA2: reduced heparin binding
